# Results: article PMC4909229, “Characterization of Staphylococcus aureus Primosomal DnaD Protein: Highly Conserved C-Terminal Region Is Crucial for ssDNA and PriA Helicase Binding but Not for DnaA Protein-Binding and Self-Tetrameri”
# “And” between values parts separate entries of the source, which are not always exact repeats. Equal values may be shown once.
# B1: dT55 (ssDNA)
# DNA: TTTTTTTTTTTTTTTTTTTTTTTTTTTTTTTTTTTTTTTTTTTTTTTTTTTTTTT
# B2: dT60 (ssDNA)
# DNA: TTTTTTTTTTTTTTTTTTTTTTTTTTTTTTTTTTTTTTTTTTTTTTTTTTTTTTTTTTTT
# B3: dT65 (ssDNA)
# DNA: TTTTTTTTTTTTTTTTTTTTTTTTTTTTTTTTTTTTTTTTTTTTTTTTTTTTTTTTTTTTTTTTT
# Key:
# [1] = target: Staphylococcus aureus PriA helicase (SaPriA) (Staphylococcus aureus subsp. aureus ED98)
# SaDnaD1-200 = target: T1, SaDnaD1-200 (Staphylococcus aureus subsp. aureus ED98, UniProt Q9EUT0 1-200, del201-228); assay: SEC; Superdex 200 HR 10/30, Buffer B (20 mM HEPES, 100 mM NaCl, pH 7.0), purified protein 2 mg/mL (methods; 4 mg/mL in the results for SaDnaD), calibrated with standard proteins; oligomer size from the estimated native mass
# T1 sequence: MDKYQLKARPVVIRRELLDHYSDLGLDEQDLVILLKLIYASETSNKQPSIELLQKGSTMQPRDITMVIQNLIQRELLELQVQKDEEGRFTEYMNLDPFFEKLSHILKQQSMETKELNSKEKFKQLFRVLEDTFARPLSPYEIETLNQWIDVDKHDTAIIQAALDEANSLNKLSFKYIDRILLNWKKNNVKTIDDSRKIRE
# [2] = target: Staphylococcus aureus PriA helicase (SaPriA) (Staphylococcus aureus subsp. aureus ED98); assay: SPR; SaPriA or SaDnaA immobilised on CM5 chips, Biacore T200, 293 K, 40 mM Tris, 200 mM NaCl, 0.05% Tween-20, pH 8.0; SaDnaD solutions 7.6-250 nM as analyte; 1:1 (Langmuir) model
# SaDnaD1-204 = target: T2, SaDnaD1-204 (Staphylococcus aureus subsp. aureus ED98, UniProt Q9EUT0 1-204, del205-228); assay: SEC; Superdex 200 HR 10/30, Buffer B (20 mM HEPES, 100 mM NaCl, pH 7.0), purified protein 2 mg/mL (methods; 4 mg/mL in the results for SaDnaD), calibrated with standard proteins; oligomer size from the estimated native mass
# T2 sequence: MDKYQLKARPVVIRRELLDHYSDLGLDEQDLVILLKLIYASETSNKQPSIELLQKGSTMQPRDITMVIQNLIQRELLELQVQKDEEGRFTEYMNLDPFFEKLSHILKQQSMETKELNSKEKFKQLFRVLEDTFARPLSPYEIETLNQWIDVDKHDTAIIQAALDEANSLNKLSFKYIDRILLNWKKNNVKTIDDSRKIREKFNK
# [3] = target: Staphylococcus aureus DnaD (SaDnaD) (Staphylococcus aureus subsp. aureus ED98) (UniProt Q9EUT0); assay: as above
# [4] = target: Staphylococcus aureus PriA helicase (SaPriA) (Staphylococcus aureus subsp. aureus ED98); remark: listed apart in the source
# [5] = target: Staphylococcus aureus PriA helicase (SaPriA) (Staphylococcus aureus subsp. aureus ED98); remark: listed apart in the source
# [6] = target: Staphylococcus aureus DnaA (SaDnaA) (Staphylococcus aureus subsp. aureus ED98); assay: SPR; SaPriA or SaDnaA immobilised on CM5 chips, Biacore T200, 293 K, 40 mM Tris, 200 mM NaCl, 0.05% Tween-20, pH 8.0; SaDnaD solutions 7.6-250 nM as analyte; 1:1 (Langmuir) model
# SaDnaD1-195 = target: T3, SaDnaD1-195 (Staphylococcus aureus subsp. aureus ED98, UniProt Q9EUT0 1-195, del196-228); assay: SEC; Superdex 200 HR 10/30, Buffer B (20 mM HEPES, 100 mM NaCl, pH 7.0), purified protein 2 mg/mL (methods; 4 mg/mL in the results for SaDnaD), calibrated with standard proteins; oligomer size from the estimated native mass
# T3 sequence: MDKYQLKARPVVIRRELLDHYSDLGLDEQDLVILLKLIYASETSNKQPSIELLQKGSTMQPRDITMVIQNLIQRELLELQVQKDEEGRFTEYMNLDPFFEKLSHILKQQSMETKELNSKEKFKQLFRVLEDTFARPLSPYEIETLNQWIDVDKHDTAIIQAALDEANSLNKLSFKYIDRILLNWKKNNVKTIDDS
# SaDnaD [7] = target: T4, SaDnaD (Staphylococcus aureus subsp. aureus ED98, UniProt Q9EUT0 1-228); assay: EMSA; EMSA: 20 mM Tris-HCl pH 8.0, 100 mM NaCl, 25 C, 30 min, 1.7 nM DNA, gel at 4 C in TBE; fluorescence: 20 mM Tris-HCl pH 8.0, 200 or 500 mM NaCl, 0.1 uM tetramer; settings: protein: recombinant; tags: C-terminal His tag (pET21e); chain copies: 4; label: 5'-32P
# T4 sequence: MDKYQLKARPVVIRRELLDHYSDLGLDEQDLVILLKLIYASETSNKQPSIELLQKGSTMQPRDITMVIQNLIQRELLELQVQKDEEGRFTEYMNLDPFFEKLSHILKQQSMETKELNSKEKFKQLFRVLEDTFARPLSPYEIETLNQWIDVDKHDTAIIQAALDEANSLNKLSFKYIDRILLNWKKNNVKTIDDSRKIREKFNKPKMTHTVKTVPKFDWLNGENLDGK
# SaDnaD [8] = target: T4, SaDnaD; assay: EMSA; two complexes summed; EMSA: 20 mM Tris-HCl pH 8.0, 100 mM NaCl, 25 C, 30 min, 1.7 nM DNA, gel at 4 C in TBE; fluorescence: 20 mM Tris-HCl pH 8.0, 200 or 500 mM NaCl, 0.1 uM tetramer; settings: protein: recombinant, tags: C-terminal His tag (pET21e), chain copies: 4
molecule,measurement,setting,value
tag-free SaDnaDY176A mutant protein (from UniProt Q9EUT0 1-228) (natural protein),Fold of Vmax/Km of SaPriA ATPase with tag-free SaDnaDY176A (10 μM) against PriA alone,[1],5.1 fold
SaDnaD1-200 (from UniProt Q9EUT0 1-200) (domain or fragment),stoichiometry N,SaDnaD1-200,4
same,Kd,[2],26 nM
SaDnaD1-204 (from UniProt Q9EUT0 1-204) (domain or fragment),stoichiometry N,SaDnaD1-204,4
same,Kd,[2],11 nM
Staphylococcus aureus DnaD (SaDnaD) (from UniProt Q9EUT0 1-228) (natural protein),stoichiometry N,[3],4
same,"SaPriA ATPase activity with tag-free SaDnaD (10 μM), stimulation over SaPriA alone",[4],11 fold and 12 fold
same,Fold of Vmax/Km of SaPriA ATPase with tag-free SaDnaD (10 μM) against PriA alone,[1],5.3 fold
same,"SaPriA ATPase activity with His-tagged SaDnaD (10 μM), stimulation over SaPriA alone",[5],12 fold
same,Kd,[2],2 nM
same,Kd,[6],17 nM
SaDnaD1-195 (from UniProt Q9EUT0 1-195) (domain or fragment),stoichiometry N,SaDnaD1-195,4
same,"SaPriA ATPase activity with tag-free SaDnaD1-195 (10 μM), stimulation over SaPriA alone",[4],2 fold
same,Fold of Vmax/Km of SaPriA ATPase with tag-free SaDnaD1-195 (10 μM) against PriA alone,[1],1.2 fold
same,"SaPriA ATPase activity with His-tagged SaDnaD1-195 (10 μM), stimulation over SaPriA alone",[5],2 fold
same,Kd,[6],150 nM
TTTTTTTTTTTTTTTTTTTTTTTTT (ssDNA) [dT25],apparent K (half saturation),SaDnaD [7],4700 ± 800 nM
B1,apparent K (half saturation),SaDnaD [7],1400 ± 100 nM
TTTTTTTTTTTTTTTTTTTTTTTTTTTTTTTTTTT (ssDNA) [dT35],apparent K (half saturation),SaDnaD [7],2200 ± 300 nM
B2,apparent K (half saturation),SaDnaD [8]; label: 5'-32P,1500 ± 100 nM
TTTTTTTTTTTTTTTTTTTTTTTTTTTTTTTTTTTTTTTTTTTTT (ssDNA) [dT45],apparent K (half saturation),SaDnaD [7],2000 ± 200 nM
B3,apparent K (half saturation),"SaDnaD [8]; label: 5'-32P (EMSA), unlabeled in fluorescence titration",500 ± 100 nM
